Laboratory results reported in the nanobody polyreactivity screen of Harvey et al. (2022).

Test: yeast display, Sf9 membrane polyspecificity reagent, FACS + sequencing; frameworks hold sequencing errors
In short: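 Galactose-induced (36–48 hours) yeast carrying a synthetic nanobody display library were exposed to 10% biotinylated, detergent-solubilized Sf9 membrane reagent at 4 °C for 1 hour. FACS followed streptavidin microbead enrichment, using low and high (top ~1%) gates for expression (anti-HA) and reagent binding (streptavidin). Colony PCR, MiSeq 2 × 250 sequencing and CDR-length filtering followed. Labels for polyreactivity reflect the gate of origin.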

Row | Sequence | polyreactivity (PSR sort gate)
1 | QVQLVESGGGLVQAGGSLRLSCAASGFIFLYYAMGWYIQAPGKERELVAAITTRGGRTYYADSVKGRFTISRDNAKNTVYLQMNSLKPEDTAVYYCAADHLYWGLEYESWGQGTQVTVSS | low polyreactivity
2 | QVQLVESGGGLVQAGGSLRLSCAASGFIFNAYAMGWYRQAPGKERELVAAISTRGSNTYYADSVKGRFTISRDNAKNTVYLQMNSLKPEDTAVYDCAARGYVTYSKSNYWGQGTQVTVSS | high polyreactivity
3 | QVQLVESGGGLVQAGGSLRLSCAASGFIFNIYAMGWYRQAPGKERELVAAITDDGSTNYADSVKGRFTISRDNAKNTVYLQMNSLKPEDTAVYYCAADDYYKFDYWGQGTQVTVSS | low polyreactivity
4 | QVQLVESGGGLVQAGGSLRLSCAASGFIFNLYAMGWYRQAPGKEREFVAGISYSGNTYYADSVKGRFTISRDNAKNTVYLQMNSLKPEDTAVYYCAARRGYNDGYWGQGTKVTVSS | high polyreactivity
5 | QVQLVESGGGLVQAGGSLRLSCAASGFIFNRNAMGWYRQAPGKERELVAGINSGGTTKYADSVKGRFTISRDNAKNTVYLQMNSLKPEDTAVYYCNRDWWWDHGRWYRTSRYDYWGQGTQVTVSS | low polyreactivity
6 | QVQLVESGGGLVQAGGSLRLSCAASGFIFNRYAMGWYRPAPGNERELVATITRRGGRTYYADSVKGRFTISRDNAKNTVYLQMNSLKPEDTALYYCNADPNVPVETFDYWGQVTQVTVSS | high polyreactivity
7 | QVQLVESGGGLVQAGGSLRLSCAASGFIFNSNARGWYRQAPGKERELVAAISGLGGSTYYADSVKGRFTISRDNAKNTVYIQMNSLKPEDTAVYYCAADVTYGTKWAYDYWGQGTQVTVSS | high polyreactivity
8 | QVQLVESGGGLVQAGGSLRLSCAASGFIFNVNAMGWYRQAPGKERELVAAITGGGGSTYYADSVKGRFTISRDNAKNTVYLQMNSLKPEDTAVYYCARGRTIRSSRTGGSWGQGTQVTVSS | high polyreactivity
9 | QVQLVESGGGLVQAGGSLRLSCAASGFIFNWYAMGWYRQAPGKERELVAAITSGGSTNYADSVKGRFTISRDNAKNTVYLQMNSLKTEDTAVYYCAARHWRRYGYWGQGTQVTVSS | high polyreactivity
10 | QVQLVESGGGLVQAGGSLRLSCAASGFIFNYNAMGWYRQAPGKERELVAAIRTSSGSTYYADSVKGRFTISRDNAKNTVYLQMNSLKPEDTAVYYCGKTRYSTYSPIYYYWGQGTQVTVSS | high polyreactivity
11 | QVQLVESGGGLVQAGGSLRLSCAASGFIFNYYTMGWYRQAPGKERELVAVITGGGGSTYYADSVKGRFTISRDNAKNTVYLQMNSLKPEDTAVYYCAAEWFSWGQGTQITVSS | low polyreactivity
12 | QVQLVESGGGLVQAGGSLRLSCAASGFIFPANAMGWYRQAPGKEREFVAAISRSGGTTYYADSVKGRFTISRDNAKNTVYLQMNSLKPEDTAVYYCAARYAIGPGYDYWGQGTQVTVSS | high polyreactivity
13 | QVQLVESGGGLVQAGGSLRLSCAASGFIFPDYAMGWYRPAPGKERELVAAINRRGSRTYYADSVKGRFTISRDNAKNTVYLQMNSLKPEDTAVYYCNRDVGKVYAVIYDYWGQGTQVTVSS | high polyreactivity
14 | QVQLVESGGGLVQAGGSLRLSCAASGFIFPGHAMGWYRQAPGKERELVAAISTSGGSTYYADSVKGRFTISRDNAKNTVYLQMNSLKPEDTAVYYCATKRPYVDDYGYWGQGTQVTVSS | high polyreactivity
15 | QVQLVESGGGLVQAGGSLRLSCAASGFIFPIYAMGWYRQEHGKERELVAGISGSGTSTYYADSVKGRFTISLDYAKNTVYLQMNSLKPVDNAVYYCNAKYPWGNYKSVSYDYWGQGTQVTVSS | high polyreactivity
16 | QVQLVESGGGLVQAGGSLRLSCAASGFIFPPYAMGWYRQAPGTERELVAAIRISGGSTYYADSVKGRFTISRDNAKNTVYFHLNSLKPEDTAVYYCAARYVSSTPAFAYYYWGQGTQVTVSS | high polyreactivity
17 | QVQLVESGGGLVQAGGSLRLSCAASGFIFPPYDMGWYRQAPGKERELVAGISDVGTTYYADSVKGRYTISRDNAKNPVYLQMNSLKPEDSAVYYCAAESQGDDQFWTGGYDSWGQGTQVTVSS | low polyreactivity
18 | QVQLVESGGGLVQAGGSLRLSCAASGFIFPPYTMGWYRQAPGKERELVAAINSGGSTYYADSVKGRFTISRDNAKNTVYLPMNSLKPEDTAVYYCAADTDRALAHFDYWGQGTQVTVSS | low polyreactivity
19 | QVQLVESGGGLVQAGGSLRLSCAASGFIFPTYAMGWYRQAPGKERELVATITTNAGGTHYADSVKGRFTISRDNAKNTVYLQMNSLKPEDTAVYYCAAKQYRPKQRKYWTRIYDYWGQGTQVTVSS | low polyreactivity
20 | QVQLVESGGGLVQAGGSLRLSCAASGFIFPVNARGGSRQAPGKERELHADISSDGSTNYADSVKGRFTISRDNAKNTVYLQMNSLKPEDTAVYYCAREDNLRHQSDSRYDYWGQGTQVTVSS | low polyreactivity
21 | QVQLVESGGGLVQAGGSLRLSCAASGFIFPWYTMGWYRQAPGKERELVAVINQSGGSTYYADSVKGRFTISRDNAKNTVYLQMNSLKPEDTAVYYCAAKSYRGSVKLRWSERGYWGQGTQVTVSS | high polyreactivity
22 | QVQLVESGGGLVQAGGSLRLSCAASGFIFPYYAMGWYRQAPGKERELVAAISSGGSTYYADSVKGRFTISRDNAKNSVYLQMNSLKPEDTAVYYCAVRITYWTGEFDYWGQGTQVTVSS | high polyreactivity

Row | Sequence | polyreactivity (PSR sort gate)
23 | QVQLVESGGGLVQAGGSLRLSCAASGFIFPYYAMGWYRQAPGKERELVAANSRRGTSTFYADSVKGRFTISRDNAKNNVYLQMNSLKTEDTAVYYCNAEYGIGDDSWVQGTQVTVSS | high polyreactivity
24 | QVQLVESGGGLVQAGGSLRLSCAASGFIFQANAMGWYRQAPGKERELVAAIDDGDSTYADSVKGRFTISRDNAKNTVYLQMNSLKPEDTAVYYCATRRNRSYDYWGQGTQVTVSS | low polyreactivity
25 | QVQLVESGGGLVQAGGSLRLSCAASGFIFQGYARGWYRQAPGKERELVATISKSGGSTYYADSVKGRFTISRDTAKNTVYLQMTSLKPEDTAVYYCNARPGQSGARFGYWGQGTQVTVSS | high polyreactivity
26 | QVQLVESGGGLVQAGGSLRLSCAASGFIFQKYAMGWYRQAPGKERELVAAISRSGGSTYYADSVKGRFTISRDNAKNTDYLQMNSLKPEDTAVYYCAARYKGRAFWMDYWGQGTQVTVSS | high polyreactivity
27 | QVQLVESGGGLVQAGGSLRLSCAASGFIFQPYAMGWSRQAPGKERELVAAITSRGGRTYYADSVKGRFTISRDNAKNTVYLQMNSLKPEDTAVYYCNADIYASEYYYWGQGTQLTVSS | low polyreactivity
28 | QVQLVESGGGLVQAGGSLRLSCAASGFIFQTNVMGWYRQAPGKERELVAAISSGDSTYYADSVKGRFTISRDNAKNTVYLQMNSLKPEDTAVYYCAADSIRTLLTGNTVYIWYGYWGQGTQVTVSS | low polyreactivity
29 | QVQLVESGGGLVQAGGSLRLSCAASGFIFQWYAMGWYRQAPGKERELVAAISIGDSTYYADSVKGRFTISRDNAKNTVYLQMNSLKPADTAVYFCNADPWGYYSVIPLYEYDYWGQGTQVTVSS | low polyreactivity
30 | QVQLVESGGGLVQAGGSLRLSCAASGFIFQWYAMGWYRQAPGKERELVAAISIGDSTYYADSVKGRFTISRDNAKNTVYLQMNSLKPEDTAVYYCNSDPWGYYCVIPLYEYDYWGQGTQVTVSS | low polyreactivity
31 | QVQLVESGGGLVQAGGSLRLSCAASGFIFQYNAMGWYRQAPGKERELVAAISKSGGRTYYADSVKGRFTISRDNPKNTVDLQMNSLKPEDTAVYYCAALYVWLWGYRFDYWGQGTQVTVSS | high polyreactivity
32 | QVQLVESGGGLVQAGGSLRLSCAASGFIFQYYGMGWYRQAPGQVRELVAAIDSRGGSTYYADSVKGRFTISRDNAKNTVSLQMNSLKPADTAVYYCAAMGLYQGTLNHFYYWGQGTQVTVAS | low polyreactivity
33 | QVQLVESGGGLVQAGGSLRLSCAASGFIFRAYAMGWYRQAPGKERELVAAITKRSGTTYYADSVKGRFTISRDNAKNTVYLQMHSLKPEDTAVYYCAARYYRDYRWYTYAYDYWGQGTQVTVSS | high polyreactivity
34 | QVQLVESGGGLVQAGGSLRLSCAASGFIFRAYTKGWYRQAPGKERELVAAITSSGGRTNYADSVKGRFTISRDNAKNTVYLQMNSLKPEDTAVYYCATVYAKWKQFDYWGQGTQVTVSS | high polyreactivity
35 | QVQLVESGGGLVQAGGSLRLSCAASGFIFRAYTMGWYRQAPGKERELVAAITSSGGRTYYADSVKGRFTISRDNAKNTVYLQMNSLKPEDTAVYYCATVYAKWKQFDYWGQGTQVTVSS | high polyreactivity
36 | QVQLVESGGGLVQAGGSLRLSCAASGFIFRFNAMGWYRQAPGKEREMVAAISWRGGSTYYADSVKGRFTISRDNAKNTVYLQMNSLKPEDTAVYYCAADVTRYYRYGYNYWGQGSQVTVSS | high polyreactivity
37 | QVQLVESGGGLVQAGGSLRLSCAASGFIFRFYAMGWYRQAPGKERELVAAISSDGSTNYADSVKGRFTISRDNAKNTVYLQMNSLKPEDTAVYYCNADYYEYYSGPTLVVYIYGYWGQGTQVTVSS | low polyreactivity
38 | QVQLVESGGGLVQAGGSLRLSCAASGFIFRGYAMGWYRQAPGKERELVAAINYSGGSTYYADSVKGRFTISRDNAKNTVYLQMNSLKPEDTAVYYCAAGKRGDDDYWGQGTQVTVSS | high polyreactivity
39 | QVQLVESGGGLVQAGGSLRLSCAASGFIFRGYAMGWYRQAPGKERELVAAITSSGGDTYYADSVKGRFTISRDNAKNTVYLQMNSLKPEDTAVYYCNARVYASGTEGDYWGQGTQVTVSS | low polyreactivity
40 | QVQLVESGGGLVQAGGSLRLSCAASGFIFRHYAMGWYRPAPGKERELVAAITSGGTTYYADSVKGRFTISRDNAKNTVYLQMNSLKPEDTAVYYCNTVYYRPGQDVDYWGQGTQVTVSS | high polyreactivity
41 | QVQLVESGGGLVQAGGSLRLSCAASGFIFRLNAMGWYRQAPGKERELVAAISTYADSMKGRFTISRDNAKNTVYLQMNSLKPEDTAVYYCAKDYTDTYAYRTGFDYWGQGTQVTVSS | low polyreactivity
42 | QVQLVESGGGLVQAGGSLRLSCAASGFIFRLYTMGGYRQAPGKERELVAAISWSGGRTYYADSVKGRFTISRDNAKNTVYLQMNSLKPEDTAVYYCAKDLYLHTYYAYPYRFGSGYYWGQGTQVTVSS | low polyreactivity
43 | QVQLVESGGGLVQAGGSLRLSCAASGFIFRNYAMGWYRQAPGKERELVAAISRRAGSTYYADSVKGRFTISRDNAKNTVYLQMNSLKPEVTAVYYCAADSYWRYYPTKYDYWGQGTQVTVSS | high polyreactivity
